This passage reports abundance fitness results from the Human Domainome abundance scans (Beltran et al. 2025).

± gives the uncertainty stated by the source.

B1: Pituitary-specific positive transcription factor 1, residues 130 to 198; numbered along this chain, P28069 (parent)
chain: RELEKFANEFKVRRIKLGYTQTNVGEALAAVHGSEFSQTTICRFENLQLSFKNACKLKAILSKWLEEAE

The variants in this series derive from B1. The series is described as follows: abundance fitness (aPCA) (normalised: wild type 0, dead -1); higher = more abundant; growth selection in yeast, the domain comes from the species named. Particulars: Homo sapiens.
Regarding RELRKFANEFKVRRIKLGYTQTNVGEALAAVHGSEFSQTTICRFENLQLSFKNACKLKAILSKWLEEAE, the abundance fitness was -0.229 ± 0.058.

In the case of RELPKFANEFKVRRIKLGYTQTNVGEALAAVHGSEFSQTTICRFENLQLSFKNACKLKAILSKWLEEAE, the abundance fitness is -0.898 ± 0.15. With RELYKFANEFKVRRIKLGYTQTNVGEALAAVHGSEFSQTTICRFENLQLSFKNACKLKAILSKWLEEAE the figure was -0.604 ± 0.24. With RELAKFANEFKVRRIKLGYTQTNVGEALAAVHGSEFSQTTICRFENLQLSFKNACKLKAILSKWLEEAE the figure was 0.043 ± 0.084. For the variant RELFKFANEFKVRRIKLGYTQTNVGEALAAVHGSEFSQTTICRFENLQLSFKNACKLKAILSKWLEEAE, the abundance fitness was -0.316 ± 0.087. For the variant RELMKFANEFKVRRIKLGYTQTNVGEALAAVHGSEFSQTTICRFENLQLSFKNACKLKAILSKWLEEAE, the abundance fitness was -0.451 ± 0.21.

For the variant RELLKFANEFKVRRIKLGYTQTNVGEALAAVHGSEFSQTTICRFENLQLSFKNACKLKAILSKWLEEAE, the abundance fitness was -0.579 ± 0.11. For RELCKFANEFKVRRIKLGYTQTNVGEALAAVHGSEFSQTTICRFENLQLSFKNACKLKAILSKWLEEAE the value was -0.552 ± 0.21; for RELIKFANEFKVRRIKLGYTQTNVGEALAAVHGSEFSQTTICRFENLQLSFKNACKLKAILSKWLEEAE, -0.145 ± 0.069; for RELEKFENEFKVRRIKLGYTQTNVGEALAAVHGSEFSQTTICRFENLQLSFKNACKLKAILSKWLEEAE, -0.235 ± 0.11. With RELEKFTNEFKVRRIKLGYTQTNVGEALAAVHGSEFSQTTICRFENLQLSFKNACKLKAILSKWLEEAE the figure was -0.356 ± 0.17. On to RELEKFDNEFKVRRIKLGYTQTNVGEALAAVHGSEFSQTTICRFENLQLSFKNACKLKAILSKWLEEAE, for which the abundance fitness is -0.783 ± 0.15. For the variant RELEKFSNEFKVRRIKLGYTQTNVGEALAAVHGSEFSQTTICRFENLQLSFKNACKLKAILSKWLEEAE, the abundance fitness is -0.425 ± 0.19. In the case of RELEKFINEFKVRRIKLGYTQTNVGEALAAVHGSEFSQTTICRFENLQLSFKNACKLKAILSKWLEEAE, the abundance fitness stood at 0.162 ± 0.11. With RELEKFMNEFKVRRIKLGYTQTNVGEALAAVHGSEFSQTTICRFENLQLSFKNACKLKAILSKWLEEAE the figure was -0.551 ± 0.15; with RELEKFRNEFKVRRIKLGYTQTNVGEALAAVHGSEFSQTTICRFENLQLSFKNACKLKAILSKWLEEAE, -0.7 ± 0.094; with RELEKFLNEFKVRRIKLGYTQTNVGEALAAVHGSEFSQTTICRFENLQLSFKNACKLKAILSKWLEEAE, -0.975 ± 0.13. Turning to RELEKFGNEFKVRRIKLGYTQTNVGEALAAVHGSEFSQTTICRFENLQLSFKNACKLKAILSKWLEEAE, the abundance fitness is -0.885 ± 0.16.

In the case of RELEKFCNEFKVRRIKLGYTQTNVGEALAAVHGSEFSQTTICRFENLQLSFKNACKLKAILSKWLEEAE, the abundance fitness is -0.21 ± 0.061.

Take RELEKFQNEFKVRRIKLGYTQTNVGEALAAVHGSEFSQTTICRFENLQLSFKNACKLKAILSKWLEEAE: the abundance fitness is -0.944 ± 0.46. With RELEKFHNEFKVRRIKLGYTQTNVGEALAAVHGSEFSQTTICRFENLQLSFKNACKLKAILSKWLEEAE the figure was -0.973 ± 0.34; with RELEVFANEFKVRRIKLGYTQTNVGEALAAVHGSEFSQTTICRFENLQLSFKNACKLKAILSKWLEEAE, -0.278 ± 0.041.

As to RELEWFANEFKVRRIKLGYTQTNVGEALAAVHGSEFSQTTICRFENLQLSFKNACKLKAILSKWLEEAE, the abundance fitness was -0.596 ± 0.063. With RELESFANEFKVRRIKLGYTQTNVGEALAAVHGSEFSQTTICRFENLQLSFKNACKLKAILSKWLEEAE the figure was -0.278 ± 0.044; with RELENFANEFKVRRIKLGYTQTNVGEALAAVHGSEFSQTTICRFENLQLSFKNACKLKAILSKWLEEAE, -0.079 ± 0.056. For RELEPFANEFKVRRIKLGYTQTNVGEALAAVHGSEFSQTTICRFENLQLSFKNACKLKAILSKWLEEAE the value was -1.07 ± 0.16; for RELELFANEFKVRRIKLGYTQTNVGEALAAVHGSEFSQTTICRFENLQLSFKNACKLKAILSKWLEEAE, -0.227 ± 0.039; for RELEIFANEFKVRRIKLGYTQTNVGEALAAVHGSEFSQTTICRFENLQLSFKNACKLKAILSKWLEEAE, -0.079 ± 0.054.

For the variant RELEFFANEFKVRRIKLGYTQTNVGEALAAVHGSEFSQTTICRFENLQLSFKNACKLKAILSKWLEEAE, the abundance fitness is -0.46 ± 0.14. With RELEEFANEFKVRRIKLGYTQTNVGEALAAVHGSEFSQTTICRFENLQLSFKNACKLKAILSKWLEEAE, the abundance fitness was -0.062 ± 0.049. As to RELEGFANEFKVRRIKLGYTQTNVGEALAAVHGSEFSQTTICRFENLQLSFKNACKLKAILSKWLEEAE, the abundance fitness is -0.478 ± 0.071. For RELEAFANEFKVRRIKLGYTQTNVGEALAAVHGSEFSQTTICRFENLQLSFKNACKLKAILSKWLEEAE the value was -0.015 ± 0.045. For RELEDFANEFKVRRIKLGYTQTNVGEALAAVHGSEFSQTTICRFENLQLSFKNACKLKAILSKWLEEAE the value was 0.048 ± 0.074; for RELEHFANEFKVRRIKLGYTQTNVGEALAAVHGSEFSQTTICRFENLQLSFKNACKLKAILSKWLEEAE, -0.135 ± 0.065; for RELETFANEFKVRRIKLGYTQTNVGEALAAVHGSEFSQTTICRFENLQLSFKNACKLKAILSKWLEEAE, -0.21 ± 0.066. Take RELEQFANEFKVRRIKLGYTQTNVGEALAAVHGSEFSQTTICRFENLQLSFKNACKLKAILSKWLEEAE: the abundance fitness is -0.172 ± 0.064. With RELECFANEFKVRRIKLGYTQTNVGEALAAVHGSEFSQTTICRFENLQLSFKNACKLKAILSKWLEEAE the figure was -0.647 ± 0.089.

Consider RELERFANEFKVRRIKLGYTQTNVGEALAAVHGSEFSQTTICRFENLQLSFKNACKLKAILSKWLEEAE, for which the abundance fitness was -0.117 ± 0.043. Consider RELEYFANEFKVRRIKLGYTQTNVGEALAAVHGSEFSQTTICRFENLQLSFKNACKLKAILSKWLEEAE, for which the abundance fitness was -0.236 ± 0.096.
